From publication PMC3812353
Where a chain is given by its changes, count along the chain named.

T1: MutS-IAANS (MutS-C42A/M88C) (Thermus aquaticus (printed as T. …, UniProt Q56215 1-811, C42A;M88C))
T1 sequence: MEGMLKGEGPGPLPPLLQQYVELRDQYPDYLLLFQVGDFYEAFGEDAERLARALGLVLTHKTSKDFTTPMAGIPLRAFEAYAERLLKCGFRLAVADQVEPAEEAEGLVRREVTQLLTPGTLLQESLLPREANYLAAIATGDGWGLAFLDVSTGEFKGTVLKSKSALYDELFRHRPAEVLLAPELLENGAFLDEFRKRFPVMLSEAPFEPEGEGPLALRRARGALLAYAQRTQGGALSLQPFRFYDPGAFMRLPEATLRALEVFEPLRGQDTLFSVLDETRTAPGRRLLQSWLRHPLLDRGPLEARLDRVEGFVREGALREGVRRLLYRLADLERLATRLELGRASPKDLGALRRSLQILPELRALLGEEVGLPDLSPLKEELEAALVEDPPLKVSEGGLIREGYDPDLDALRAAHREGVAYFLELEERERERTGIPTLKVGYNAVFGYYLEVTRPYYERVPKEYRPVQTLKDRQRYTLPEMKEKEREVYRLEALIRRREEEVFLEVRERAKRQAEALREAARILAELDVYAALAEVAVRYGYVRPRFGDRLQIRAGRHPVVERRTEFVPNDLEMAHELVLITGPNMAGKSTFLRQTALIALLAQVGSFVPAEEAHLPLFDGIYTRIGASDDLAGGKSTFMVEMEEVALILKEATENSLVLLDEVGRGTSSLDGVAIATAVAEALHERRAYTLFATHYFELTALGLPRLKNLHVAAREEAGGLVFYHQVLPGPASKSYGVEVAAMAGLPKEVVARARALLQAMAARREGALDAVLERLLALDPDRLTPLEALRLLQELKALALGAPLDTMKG

T2: MutS-F39A-IAANS (Thermus aquaticus (printed as T. …, UniProt Q56215 1-811, F39A;C42A;M88C))
T2 sequence: T1 sequence with F39A

T3: MutS (wild type) (Thermus aquaticus (printed as T. …, UniProt Q56215 1-811))
T3 sequence: T1 sequence with A42C, C88M

T4: MutS-F39A (Thermus aquaticus (printed as T. …, UniProt Q56215 1-811, F39A))
T4 sequence: T1 sequence with F39A, A42C, C88M

B1: DNA(+T) (dsDNA)
DNA 1: ATGTGAATCAGTATGGTATATATCTGCTGAAGGAAAT
DNA 2: ATTTCCTTCAGCAGATATTACCATACTGATTCACAT
B2: DNA(+T)TAMRA (dsDNA)
DNA 1: B1 DNA 1
DNA 2: B1 DNA 2
modifications: 3' amino linker

Tests used:
[1] = target: T1, MutS-IAANS (MutS-C42A/M88C); assay: stopped-flow IAANS fluorescence
MutS-F39A-IAANS = target: T2, MutS-F39A-IAANS; assay: IAANS fluorescence quenching, equilibrium and stopped-flow
[2] = target: T1, MutS-IAANS (MutS-C42A/M88C); assay: IAANS fluorescence quenching, equilibrium
MutS (wild type) [3] = target: T3, MutS (wild type); assay: fluorescence anisotropy, equilibrium
MutS-F39A = target: T4, MutS-F39A; assay: fluorescence anisotropy, equilibrium
MutS (wild type) [4] = target: T3, MutS (wild type); assay: stopped-flow fluorescence anisotropy

Binder | apparent K (half saturation) [1] [nM] | binding result (MutS-F39A-IAANS) | Kd [2] [nM] | Kd (MutS (wild type) [3]) [nM] | binding result (MutS-F39A) | apparent K (half saturation) (MutS (wild type) [4]) [µM]
B1 | 2300 ± 700 | no binding | 22 ± 4 |  |  | 
B2 |  |  |  | 13 ± 2 | no binding | 5 ± 2
